These results are taken from patent publication US20240059799A1 (Pfizer, published 2024).

Assay [1] has as its target T1, human IL-23 (human, UniProt P29460 23-328; Q9NPF7 20-189).
T1 sequence 1: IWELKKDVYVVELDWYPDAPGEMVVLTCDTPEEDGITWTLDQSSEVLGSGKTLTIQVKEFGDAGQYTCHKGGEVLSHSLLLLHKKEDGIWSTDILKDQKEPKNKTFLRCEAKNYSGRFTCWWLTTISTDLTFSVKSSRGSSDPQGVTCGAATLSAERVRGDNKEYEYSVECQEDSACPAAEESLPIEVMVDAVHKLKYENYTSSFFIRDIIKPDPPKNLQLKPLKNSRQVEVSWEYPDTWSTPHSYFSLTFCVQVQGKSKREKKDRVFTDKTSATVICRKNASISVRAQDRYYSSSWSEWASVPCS
T1 sequence 2: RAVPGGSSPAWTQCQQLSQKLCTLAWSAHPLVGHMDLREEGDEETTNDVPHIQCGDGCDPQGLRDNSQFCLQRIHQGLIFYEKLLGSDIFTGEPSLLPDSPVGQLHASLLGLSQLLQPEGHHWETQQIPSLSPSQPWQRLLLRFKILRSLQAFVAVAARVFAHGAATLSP
Kind of assay: cell-based or functional assay.

Assay [2] concerns the target T2, recombinant cynomolgus monkey TL1A (cynomolgus monkey, UniProt O95150 72-251 (human entry)).
T2 chain: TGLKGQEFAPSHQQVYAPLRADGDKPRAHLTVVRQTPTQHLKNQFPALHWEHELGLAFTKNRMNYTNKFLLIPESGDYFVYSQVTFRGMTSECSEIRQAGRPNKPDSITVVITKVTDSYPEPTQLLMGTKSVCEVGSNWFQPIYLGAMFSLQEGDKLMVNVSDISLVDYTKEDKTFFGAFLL
Nature of the assay: cell-based or functional assay.

For assay [3], the target named is T3, human IL-12 (human, UniProt P29460 23-328; P29459 23-219).
T3 sequence 1: T1 sequence 1
T3 sequence 2: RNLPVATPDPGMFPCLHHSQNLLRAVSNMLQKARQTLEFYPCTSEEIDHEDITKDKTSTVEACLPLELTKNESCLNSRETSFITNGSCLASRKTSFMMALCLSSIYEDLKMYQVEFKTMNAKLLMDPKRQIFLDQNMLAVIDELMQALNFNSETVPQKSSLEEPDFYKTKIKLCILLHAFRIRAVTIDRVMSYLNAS
Kind of assay: cell-based or functional assay.

The next assay concerns the target T4, recombinant human TL1A (human, UniProt O95150 71-251).
T4 chain: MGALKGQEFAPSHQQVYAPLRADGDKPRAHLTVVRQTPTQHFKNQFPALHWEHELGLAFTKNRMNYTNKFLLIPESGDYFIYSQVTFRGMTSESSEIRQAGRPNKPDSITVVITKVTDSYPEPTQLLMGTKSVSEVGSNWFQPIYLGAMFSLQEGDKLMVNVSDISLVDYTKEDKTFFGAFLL
Kind of assay: cell-based or functional assay.

For the next assay, the target named is T5, cynomolgus monkey IL-12 (cynomolgus monkey).
T5 chain 1: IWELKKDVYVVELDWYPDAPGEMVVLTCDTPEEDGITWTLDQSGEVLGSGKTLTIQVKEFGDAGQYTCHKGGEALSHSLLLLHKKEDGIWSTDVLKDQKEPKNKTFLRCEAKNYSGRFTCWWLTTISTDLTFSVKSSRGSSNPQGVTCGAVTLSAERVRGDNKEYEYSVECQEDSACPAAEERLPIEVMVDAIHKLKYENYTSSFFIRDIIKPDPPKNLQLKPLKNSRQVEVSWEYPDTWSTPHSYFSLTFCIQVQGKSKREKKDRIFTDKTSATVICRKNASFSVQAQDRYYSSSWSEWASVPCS
T5 chain 2: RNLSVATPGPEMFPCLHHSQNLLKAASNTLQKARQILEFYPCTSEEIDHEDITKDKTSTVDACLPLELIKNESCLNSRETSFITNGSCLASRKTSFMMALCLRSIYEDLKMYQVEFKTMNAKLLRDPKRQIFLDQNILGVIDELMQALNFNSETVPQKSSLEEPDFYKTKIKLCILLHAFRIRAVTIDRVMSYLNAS
Nature of the assay: cell-based or functional assay.

The target of a further assay is T6, rat IL-23 (rat, UniProt P43432 23-335; Q91Z84 22-196, limits assumed).
T6 chain 1: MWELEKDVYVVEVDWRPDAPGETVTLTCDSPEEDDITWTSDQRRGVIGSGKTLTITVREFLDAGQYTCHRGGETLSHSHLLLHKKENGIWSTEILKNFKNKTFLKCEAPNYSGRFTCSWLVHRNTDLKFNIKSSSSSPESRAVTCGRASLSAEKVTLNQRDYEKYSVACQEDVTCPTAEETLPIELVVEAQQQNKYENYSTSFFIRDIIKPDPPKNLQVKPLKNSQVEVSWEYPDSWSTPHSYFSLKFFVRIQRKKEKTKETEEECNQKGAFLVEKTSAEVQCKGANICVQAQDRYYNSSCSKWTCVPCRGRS
T6 chain 2: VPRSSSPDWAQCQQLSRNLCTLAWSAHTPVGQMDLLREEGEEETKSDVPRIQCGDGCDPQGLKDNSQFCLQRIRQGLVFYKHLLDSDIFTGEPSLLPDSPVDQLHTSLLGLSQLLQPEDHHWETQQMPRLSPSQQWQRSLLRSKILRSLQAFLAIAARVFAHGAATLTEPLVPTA
Nature of the assay: SPR, Biacore 8K+, 37 C; antibody captured by anti-human Fc, cytokine injected. On the procedure: (§1) In order to determine binding to TL1A, kinetic assays were conducted at 37° C. using a collection rate of 10 Hz on a Biacore™ T200 instrument (GE Healthcare). […] For the analysis of the p40 binding arm, kinetic assays were conducted at 37° C. using a collection rate of 10 Hz on a Biacore™ 8 K+ instrument (GE Healthcare).

The target in assay [4] is T7, human IL-12 (human, UniProt P29460 23-328; P29459 23-219).
T7 construct: also called recombinant human IL-12 (p40/p35)
T7 sequence 1: T1 sequence 1
T7 sequence 2: T3 sequence 2
The description is as above. Here is the method:
as §1

Assay [5] deals with T8, human IL-23 (human, UniProt P29460 23-328; Q9NPF7 20-189).
T8 construct: also called recombinant human IL-23 (p40/p19)
T8 sequence 1: T1 sequence 1
T8 sequence 2: T1 sequence 2
The description is as above. On the procedure:
as §1

Another assay concerns the target T9, cynomolgus monkey IL-23 (cynomolgus monkey, limits assumed).
T9 construct: also called cyno IL-23
T9 chain 1: T5 chain 1
T9 chain 2: T1 sequence 2 with T12A, H75R, L131P
Described as above. Here is the method: as §1

Where a chain is given by its changes, count along the chain named.

B1: p40TL1A-0033 (bispecific antibody, human IgG1, kappa)
chain 1: not shown
chain 2: QVQLVQSGAEVKKPGASVKVSCKASGYDYTYYGISWVRQAPGQGLEWMGWISTYNTGTHYAPSLQGRVTMTTDTSTSTAYMELRSLRSDDTAVYYCARESYYGSGAFRGGMDVWGQGTTVTVSSASTKGPSVFPLAPSSKSTSGGTAALGCLVKDYFPEPVTVSWNSGALTSGVHTFPAVLQSSGLYSLSSVVTVPSSSLGTQTYICNVNHKPSNTKVDKKVEPKSC
heavy: EVQLVQSGAEVKKPGESLKISCKGSGYSFTTYWLGWVRQMPGKGLDWIGIMSPVDSDIRYSPSFQGQVTMSVDKSITTAYLQWNSLKASDTAMYYCARRRPGQGYFDFWGQGTLVTVSSASTKGPSVFPLAPSSKSTSGGTAALGCLVKDYFPEPVTVSWNSGALTSGVHTFPAVLQSSGLYSLSSVVTVPSSSLGTQTYICNVNHKPSNTKVDKKVEPKSCDKTHTCPPCPAPEAAGAPSVFLFPPKPKDTLMISRTPEVTCVVVDVSHEDPEVKFNWYVDGVEVHNAKTKPREEQYNSTYRVVSVLTVLHQDWLNGKEYKCKVSNKALPAPIEKTISKAKGQPREPQVCTLPPSREEMTKNQVSLWCLVKGFYPSDIAVEWESNGQPENNYKTTPPVLDSDGSFFLYSKLTVDKSRWQQGNVFSCSVLHEALHSHYTQKSLSLSPGK
light: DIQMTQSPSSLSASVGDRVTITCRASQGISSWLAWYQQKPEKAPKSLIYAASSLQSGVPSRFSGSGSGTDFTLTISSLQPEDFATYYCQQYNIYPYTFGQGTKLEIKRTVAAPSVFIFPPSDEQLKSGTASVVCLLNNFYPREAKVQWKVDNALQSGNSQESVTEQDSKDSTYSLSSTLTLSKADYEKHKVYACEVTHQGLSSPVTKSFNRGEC
notes: KiH modified-Fd bispecific: TL1A VL-CL-Fc (hole), TL1A mFd, p40 HC (knob), p40 LC; LS
With B1, the “STAT3 activation in human whole blood, fold decreased potency (IC50) compared to p40-0003” value in the assay with human IL-23 [1] was roughly 2.9 fold. Further, the “NF-κB assay in TF-1 reporter cells, fold-change of neutralization across species (human against cynomolgus monkey TL1A)” value in assay [2] was 1.7 fold. The “STAT4 activation in human whole blood, fold decreased potency (IC50) compared to p40-0003” value in the assay with human IL-12 [3] is roughly 2.9 fold. Further, the “NF-κB assay in TF-1 reporter cells, neutralization relative to TL1A-0002” value in the assay with recombinant human TL1A was no more than 2 fold. Also, the “KIT-225 STAT4 phosphorylation, fold-change of potency across species (human against cynomolgus monkey IL-12)” value with cynomolgus monkey IL-12 stood at 1.2 fold.

B2: p40TL1A-0033 bispecific antibody (bispecific antibody, human IgG1, kappa)
heavy: B1 heavy
light: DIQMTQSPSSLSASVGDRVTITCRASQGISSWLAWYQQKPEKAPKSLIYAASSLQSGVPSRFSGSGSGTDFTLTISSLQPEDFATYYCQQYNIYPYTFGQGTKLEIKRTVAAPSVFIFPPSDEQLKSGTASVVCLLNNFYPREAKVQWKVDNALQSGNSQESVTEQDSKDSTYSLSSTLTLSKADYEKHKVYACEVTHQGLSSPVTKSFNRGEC
chain 1: not shown
chain 2: B1 chain 2
notes: Single cell KiH, modified Fd format; IgG1 effector-function-minimized Fc with LS mutations
For B2, the binding result with rat IL-23 is “no binding (tested: 200 nM)”. For the same molecule, the values for the dissociation constant (Kd) with human IL-12 [4], with human IL-23 [5] and with cynomolgus monkey IL-23 were 0.123 nM, 0.104 nM and 0.281 nM, respectively. Besides, the koff with human IL-12 [4] was 0.000258 s⁻¹; with human IL-23 [5], 0.000294 s⁻¹; with cynomolgus monkey IL-23, 0.000542 s⁻¹. Besides, the kon with human IL-12 [4] was determined as 2.1e+06 M⁻¹ s⁻¹; in the assay with human IL-23 [5] it was 2.82e+06 M⁻¹ s⁻¹; in the assay with cynomolgus monkey IL-23, 1.93e+06 M⁻¹ s⁻¹.

As a reminder, the Kd is the equilibrium constant for the complex coming apart. The term koff denotes a measure of how fast the partners let go of each other. The kon is the rate constant with which the complex forms.
